Test results: PMC8079166 (Biochemical Journal, 2021)

B3: HIV-1 LAI Nef WLΔN (residues 56–205) (domain or fragment)
chain: AWLEAQEEEEVGFPVTPQVPLRPMTYKAAVDLSHFLKEKGGLEGLIHSQRRQDILDLWIYHTQGYFPDWQNYTPGPGVRYPLTFGWCYKLVPVEPDKVEEANKGENTSLLHPVSLHGMDDPEREVLEWRFDSRLAFHHVARELHPEYFKN
B8: HIV-1 LAI Nef ΔNΔL (residues 60–158;174–205) (domain or fragment)
chain: AQEEEEVGFPVTPQVPLRPMTYKAAVDLSHFLKEKGGLEGLIHSQRRQDILDLWIYHTQGYFPDWQNYTPGPGVRYPLTFGWCYKLVPVEPDKVEEANKDDPEREVLEWRFDSRLAFHHVARELHPEYFKN

Tests used:
[1] = target: p85 subunit of PI3 kinase, nSH2–iSH2–cSH2 fragment (UniProt P27986 322-724); assay: MST
[2] = target: B8; assay: MST
[3] = target: HIV-1 SF2 Nef, full-length (HIV-1, SF2 isolate, UniProt P03407); assay: ITC
[4] = target: HIV-1 LAI Nef, full-length (HIV-1, LAI isolate, UniProt P03406); assay: ITC
[5] = target: T1, HIV-1 LAI Nef ΔN (residues 60–205) (HIV-1, LAI isolate, UniProt P03406 60-205); assay: ITC
[6] = target: B3; assay: ITC
[7] = target: B8; assay: ITC
[8] = target: T1, HIV-1 LAI Nef ΔN (residues 60–205); assay: MST
[9] = target: B3; assay: MST

B1: Full-length LAI Nef preincubated with 50 µM Fyn_(R96W) SH3 (complex)
chain 1: […]
chain 2: not shown
modifications: RED-NHS dye label
Kd [1]: 161 ± 17 µM

B2: Fyn SH3 domain R96I (domain or fragment)
chain: not shown
Kd [2]: 24 ± 8 µM | Kd [3]: 0.02 µM | dH [3]: -18.5 kcal/mol | stoichiometry N [3]: 0.98 | Kd [4]: 0.79 µM | dH [4]: -9.73 kcal/mol | stoichiometry N [4]: 0.93 | Kd [5]: 5.06 µM | dH [5]: -9.49 kcal/mol | stoichiometry N [5]: 0.87 | Kd [6]: 7.55 µM | dH [6]: -5.14 kcal/mol | stoichiometry N [6]: 1.01 | Kd [7]: 3.86 µM | dH [7]: -8.13 kcal/mol | stoichiometry N [7]: 0.97

SSVVGWPTVRERMRRAEPA [Nef fragment containing H1 (residues 8–26)]
Kd [8]: 699 ± 252 µM | Kd [9]: 1350 ± 219 µM | Kd [2]: 303 ± 50 µM

B3
Kd [1]: 72 ± 8 µM

B4: Nef WLΔN preincubated with 50 µM FynR96 SH3 (complex)
chain 1: AWLEAQEEEEVGFPVTPQVPLRPMTYKAAVDLSHFLKEKGGLEGLIHSQRRQDILDLWIYHTQGYFPDWQNYTPGPGVRYPLTFGWCYKLVPVEPDKVEEANKGENTSLLHPVSLHGMDDPEREVLEWRFDSRLAFHHVARELHPEYFKN
chain 2: not shown
modifications: RED-NHS dye label
Kd [1]: 104 ± 11 µM

B5: Nef WLΔN preincubated with 50 µM Fyn_(R96I) SH3 (complex)
chain 1: AWLEAQEEEEVGFPVTPQVPLRPMTYKAAVDLSHFLKEKGGLEGLIHSQRRQDILDLWIYHTQGYFPDWQNYTPGPGVRYPLTFGWCYKLVPVEPDKVEEANKGENTSLLHPVSLHGMDDPEREVLEWRFDSRLAFHHVARELHPEYFKN
chain 2: not shown
modifications: RED-NHS dye label
Kd [1]: 107 ± 12 µM

B6: Nef WLΔN preincubated with 50 µM Fyn_(R96W) SH3 (complex)
chain 1: AWLEAQEEEEVGFPVTPQVPLRPMTYKAAVDLSHFLKEKGGLEGLIHSQRRQDILDLWIYHTQGYFPDWQNYTPGPGVRYPLTFGWCYKLVPVEPDKVEEANKGENTSLLHPVSLHGMDDPEREVLEWRFDSRLAFHHVARELHPEYFKN
chain 2: not shown
modifications: RED-NHS dye label
Kd [1]: 108 ± 14 µM

B7: Full-length LAI Nef preincubated with 50 µM FynR96 SH3 (complex)
chain 1: […]
chain 2: not shown
modifications: RED-NHS dye label
Kd [1]: 141 ± 14 µM

B8
Kd [1]: 53 ± 3 µM

B9: Nef ΔNΔL preincubated with 50 µM FynR96 SH3 (complex)
chain 1: AQEEEEVGFPVTPQVPLRPMTYKAAVDLSHFLKEKGGLEGLIHSQRRQDILDLWIYHTQGYFPDWQNYTPGPGVRYPLTFGWCYKLVPVEPDKVEEANKDDPEREVLEWRFDSRLAFHHVARELHPEYFKN
chain 2: not shown
modifications: RED-NHS dye label
Kd [1]: 47 ± 8 µM

B10: Nef ΔNΔL preincubated with 50 µM Fyn_(R96W) SH3 (complex)
chain 1: AQEEEEVGFPVTPQVPLRPMTYKAAVDLSHFLKEKGGLEGLIHSQRRQDILDLWIYHTQGYFPDWQNYTPGPGVRYPLTFGWCYKLVPVEPDKVEEANKDDPEREVLEWRFDSRLAFHHVARELHPEYFKN
chain 2: not shown
modifications: RED-NHS dye label
Kd [1]: 79 ± 16 µM

B11: Nef ΔNΔL preincubated with 50 µM Fyn_(R96I) SH3 (complex)
chain 1: AQEEEEVGFPVTPQVPLRPMTYKAAVDLSHFLKEKGGLEGLIHSQRRQDILDLWIYHTQGYFPDWQNYTPGPGVRYPLTFGWCYKLVPVEPDKVEEANKDDPEREVLEWRFDSRLAFHHVARELHPEYFKN
chain 2: not shown
modifications: RED-NHS dye label
Kd [1]: 96 ± 18 µM

B12: Full-length LAI Nef preincubated with 50 µM Fyn_(R96I) SH3 (complex)
chain 1: […]
chain 2: not shown
modifications: RED-NHS dye label
Kd [1]: 135 ± 10 µM

B13: Fyn SH3 domain R96W (domain or fragment)
chain: not shown
Kd [3]: 0.12 µM | dH [3]: -13.5 kcal/mol | stoichiometry N [3]: 0.91 | Kd [4]: 1.43 µM | dH [4]: -12 kcal/mol | stoichiometry N [4]: 0.96 | Kd [5]: 1.28 µM | dH [5]: -13.5 kcal/mol | stoichiometry N [5]: 0.9 | Kd [6]: 1.45 µM | dH [6]: -7 kcal/mol | stoichiometry N [6]: 0.94 | Kd [7]: 0.78 µM | dH [7]: -11.2 kcal/mol | stoichiometry N [7]: 0.98

B14: Fyn SH3 domain, wild type (FynR96) (domain or fragment)
chain: not shown
Kd [3]: 28.7 µM | dH [3]: -14.1 kcal/mol | Kd [4]: 58.5 µM | dH [4]: -11 kcal/mol | Kd [5]: 83.3 µM | dH [5]: -8.2 kcal/mol | Kd [6]: 50.8 µM | dH [6]: -3.39 kcal/mol | Kd [7]: 24.3 µM | dH [7]: -3.35 kcal/mol
